The subject of assay [1] is CO. Put plainly: Pull-down truncation analysis of MRG2 with GST-fused CO. The format is binding, Arabidopsis. The following applies: in vitro pull-down, Figure 5B. How it is done:
(§1) MRG2 and MRG2C (442–984) cDNA were amplified with primers MRG2-1/MRG2-10 and MRG2-9/MRG2-10, respectively, and then cloned into pET-30a vector (Novagen, www.novagen.com). The resulting constructs and pET-30a-MRG2N were used for purification of His-tagged MRG2, MRG2C, and MRG2N proteins. CO cDNA was amplified using primers CO-1/CO-2, and then cloned into pGEX-4T-1 vector for purification of GST-fused CO proteins. Pulldown experiments were performed according to a previously described protocol.

The test system of assay [2] is CO. Put plainly: Bimolecular fluorescence complementation (BiFC) in tobacco leaf cells. The class given is cell-based, Arabidopsis. Particulars: split YFP, Nicotiana benthamiana leaves, 2–3 days after infiltration, Figure 5C. How it is done: BiFC was performed as described by Sun et al.. For BiFC assays, MRG2C cDNA was amplified using primers MRG2-11/MRG2-12, and then cloned into pXY103 and pXY106 vectors. CO cDNA was amplified by primers CO-3/CO-4, and then cloned into a pXY104 vector. Leaves of 4- to 8-week-old Nicotiana benthamiana plants were co-infiltrated with Agrobacterium tumefaciens strain […] carrying transgene constructs. Localization of BiFC fluorescence was observed 2–3 days after infiltration using a confocal laser scanning microscope (LSM 710, ZEISS, Germany).

The subject of a further assay is MRG2. The assay is described as follows: GST pull-down assay, His-tagged MRG2. The format is binding, Arabidopsis. Particulars: in vitro, purified proteins from E. coli, Figure 5B. How it is done:
as §1

B1: MRG2C: MRG domain of MRG2, cDNA 442–984 (protein)
chain: RKQDSVDTEKNVLPSDNLLSFNIPPALRKQLLDDFEFVTQMQKLVQLPRSPNVDGILKKYIDSQMKKHGRVTDSLEEILKGLRCYFDKALPVMLLYNNERKQYEESVSGGVSPSTVYGAEHLLRLFVKLPELLVHVNMAEETLKELQDNFVDILRFLRKNQSVLFVSTYKAVEEMEKKEG
modifications: left off: His tag, end not stated, kept
For B1, in the assay with CO [1], the “binding to CO” value is recorded as “contributed to binding to CO”. In the assay with CO [2], the “interaction with CO in vivo” value is recorded as “interacted in vivo”.

B2: MRG2: Arabidopsis Morf Related Gene group protein MRG2 (protein, UniProt Q4V3E2 1-327, looked up)
Protein MRG2: MGSPNAAAETDLTTDDFIGDTRRDSGSDTETNTDCDGEDLPLLLLPAPPGHFEEGERVLAKHSDCFYEAKVLKVEFKDNEWKYFVHYIGWNKSWDEWIRLDCLLKHSDENIEKQKEQGLKQQGIKSAMAWKVSKMKPRSPNVARGRKRKQDSVDTEKNVLPSDNLLSFNIPPALRKQLLDDFEFVTQMQKLVQLPRSPNVDGILKKYIDSQMKKHGRVTDSLEEILKGLRCYFDKALPVMLLYNNERKQYEESVSGGVSPSTVYGAEHLLRLFVKLPELLVHVNMAEETLKELQDNFVDILRFLRKNQSVLFVSTYKAVEEMEKKEG
Regarding B2, the “interaction with CO in vivo” value in the assay with CO [2] is given as “interacted in vivo”.

B3: MRG2N: chromodomain of MRG2, cDNA 1–369 (protein)
chain: MGSPNAAAETDLTTDDFIGDTRRDSGSDTETNTDCDGEDLPLLLLPAPPGHFEEGERVLAKHSDCFYEAKVLKVEFKDNEWKYFVHYIGWNKSWDEWIRLDCLLKHSDENIEKQKEQGLKQQG
modifications: left off: His tag, N-terminal, kept
For the molecule B3, the “binding to CO” value with CO [1] is given as “not”.

B4: GST-fused CO: GST-fused CONSTANS protein purified from E. coli (protein)
chain: MLKQESNDIGSGENNRARPCDTCRSNACTVYCHADSAYLCMSCDAQVHSANRVASRHKRVRVCESCERAPAAFLCEADDASLCTACDSEVHSANPLARRHQRVPILPISGNSFSSMTTTHHQSEKTMTDPEKRLVVDQEEGEEGDKDAKEVASWLFPNSDKNNNNQNNGLLFSDEYLNLVDYNSSMDYKFTGEYSQHQQNCSVPQTSYGGDRVVPLKLEESRGHQCHNQQNFQFNIKYGSSGTHYNDNGSINHNAYISSMETGVVPESTACVTTASHPRTPKGTVEQQPDPASQMITVTQLSPMDREARVLRYREKRKTRKFEKTIRYASRKAYAEIRPRVNGRFAKREIEAEEQGFNTMLMYNTGYGIVPSF
modifications: left off: GST, end not stated, kept
notes: GST-fused CONSTANS protein purified from E. coli
On to B4, for which, in the assay with MRG2, the “pull-down of His-tagged MRG2” value is on record as “could pull-down MRG2”.

The record behind these values is paper PMC4161306, “Regulation of Arabidopsis Flowering by the Histone Mark Readers MRG1/2 via Interaction with CONSTANS to Modulate FT Expression” (PLoS Genetics, 2014).
